Source: patent US20250382379A1 (VISTERRA, published 2025)
Changes are numbered by the printed parent chain. Each block holds one binder with its values, some of them ahead of it.

Assays:
[1] = biological target: T1, human CD138 (syndecan-1), membrane-bound on CD138+ multiple myeloma cell lines (human, UniProt P18827 23-310); test: flow cytometry on U266 cells, geometric MFI
T1 construct: whole, on cells; also called membrane CD138; cell surface CD138
T1 sequence (looked up): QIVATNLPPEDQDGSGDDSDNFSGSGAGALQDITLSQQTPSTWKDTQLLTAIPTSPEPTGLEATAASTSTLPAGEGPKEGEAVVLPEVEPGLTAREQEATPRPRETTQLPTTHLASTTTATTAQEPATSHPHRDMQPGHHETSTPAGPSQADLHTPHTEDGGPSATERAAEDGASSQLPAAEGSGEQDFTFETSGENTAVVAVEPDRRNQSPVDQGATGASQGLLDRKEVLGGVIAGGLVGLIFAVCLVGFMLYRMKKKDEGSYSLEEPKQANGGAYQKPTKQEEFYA

[2] = biological target: T1, human CD138 (syndecan-1), …; test: flow cytometry on U266 cells, maximal MFI, reference BB4
Procedure: The antibodies were then serially diluted three-fold. Antibody binding to membrane CD138 was evaluated using the CD138+ human lymphoblastic myeloma cell line U266 and quantified by flow cytometry. Antibody cell binding was reported as geometric mean fluorescence intensity (MFI). Binding data were plotted using nonlinear regression analysis and a 4-parameter curve fit.
Antibody cell binding was reported as geometric mean fluorescence intensity (MFI). Binding data were plotted using nonlinear regression analysis and a 4-parameter curve fit.

[3] = biological target: T2, human CD138 derived peptide 2A (integrin binding domain), biotinylated (human, biotinylated (site not stated)); test: antigen capture ELISA, antibody coated, biotinylated peptide titrated from 50 nM
T2 construct: also called Pep2a
T2 peptide: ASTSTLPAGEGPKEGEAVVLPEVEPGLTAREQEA
Procedure: (§1) 1 or select human CD138 derived peptides (Table 3) was evaluated by antigen capture ELISA. […] The immobilized monoclonal antibodies were tested for binding to biotinylated recombinant CD138 extracellular domain or peptides 2A, peptide 6A in 5-fold serial antigen dilutions starting at starting at a 50 nM concentration. HRP-conjugated Anti-biotin secondary antibody (1:10000 dilution) was used for detection.

[4] = biological target: T3, human CD138 derived peptide 6A (membrane proximal region), biotinylated (human, biotinylated (site not stated)); test: as above
T3 construct: also called Pep6a
T3 peptide: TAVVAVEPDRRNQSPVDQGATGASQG
Procedure: as §1

[5] = biological target: T4, extracellular domain of soluble human CD138 (amino acids 18-251 of SEQ ID NO 1), biotinylated recombinant (human, UniProt P18827 18-251, biotinylated (site not stated)); test: antigen capture ELISA, antibody coated, biotinylated CD138 extracellular domain, reference BB4
T4 construct: also called CD138 extracellular domain; soluble extracellular domain of human CD138
T4 sequence: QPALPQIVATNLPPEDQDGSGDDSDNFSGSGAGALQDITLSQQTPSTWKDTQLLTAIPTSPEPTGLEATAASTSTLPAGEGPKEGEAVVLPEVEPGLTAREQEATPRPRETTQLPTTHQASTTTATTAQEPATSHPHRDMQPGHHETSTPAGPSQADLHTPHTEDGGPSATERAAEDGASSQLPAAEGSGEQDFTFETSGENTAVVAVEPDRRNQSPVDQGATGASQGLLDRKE
Procedure: as §1

[6] = biological target: T1, human CD138 (syndecan-1), …; test: flow cytometry on MM1.S, LP-1 and RPMI 8226 cells

binding result [1]: binds
B1: mouse chimeric anti-CD138 antibody 2810 (antibody, V domains shown)
VH: QVQLHQPGTSLVKPGASVKLSCKASGYSFSSYYMHWVKQRPGQGLEWIGTIHPSDSTTNYNQKFKGKATLTVDKSSRTAYMQLNSLTFEDSAVYYCANFVYWGQGTSVTVSS
VL: DIVITQDELSNPVTSGDSVSISCRSSKSLLYKDGKTYLNWFLQRPGQSPQLLIYVVSTRASGVSDRFSGSGSGTDFTLEISRVKAEDVGVYYCQQLVEYPYTFGGGTKLEIK
notes: Described as a mouse-human chimeric antibody; also called mAb2810

total cell surface binding (maximal MFI) relative to antibody BB4 [2]: ~25 % greater than BB4 | binding result [3]: binds | binding result [4]: binds | fold higher binding affinity in comparison to BB4 [5]: ~6 fold
B2: humanized anti-CD138 antibody mAb 4320 (antibody, human IgG1, kappa, V domains shown)
VH: QVQLVQSGAEVKKPGASVKVSCKASGYSFSSYYMHWVRQAPGQGLEWMGTIHPSDSTTNYNQKFQGRVTMTVDTSTRTAYMELSSLRSEDTAVYYCANFVYWGQGTTVTVSS
VL: DIVMTQTPLSLSVTPGQPASISCKSSKSLLYKDGKTYLNWFLQKPGQSPQLLIYVVSTRASGVPDRFSGSGSGTDFTLKISRVEAEDVGVYYCQQLVEYPYTFGQGTKLEIKR
notes: Produced with 2FF in the medium to reduce core fucose of the N297 glycan

binding result [6]: binds
B3: humanized anti-CD138 antibody variant 4326 (antibody, human IgG1, V domains shown)
VH: B2 VH
VL: DIVMTQSPDSLAVSLGERATINCKSSQSLLYKDGKTYLNWFQQKPGQPPKLLIYVVSTRASGVPDRFSGSGSGTDFTLTISSLQAEDVAVYYCQQLVEYPYTFGQGTKLEIK
notes: also called mAb 4326

binding result [6]: binds
B4: humanized anti-CD138 antibody variant 3821 (antibody, human IgG1, V domains shown)
VH: B2 VH with A16S, T58A, Q65K, M70I, T74K, R77S
VL: DIVMTQTPLSLSVTPGQPASISCKSSKSLLYKDGKTYLNWFLQKPGQSPQLLIYVVSTRASGVPDRFSGSGSGTDFTLKISRVEAEDVGVYYCQQLVQYPYTFGQGTKLEIK
notes: also called mAb 3821

binding result [6]: binds
B5: humanized anti-CD138 antibody variant 4521 (antibody, human IgG1, V domains shown)
VH: B2 VH with S28N, S30A, Q65K, R77S
VL: B4 VL
notes: also called mAb 4521

binding result [6]: binds
B6: humanized anti-CD138 antibody variant 4321 (antibody, human IgG1, V domains shown)
VH: B2 VH
VL: B4 VL
notes: also called mAb 4321

binding result [6]: binds
B7: humanized anti-CD138 antibody variant 3820 (antibody, human IgG1, V domains shown)
VH: B2 VH with A16S, T58A, Q65K, M70I, T74K, R77S
VL: B4 VL with Q98E
notes: also called mAb 3820
